4 molecules from patent US20200079848A1 (Five Prime, published 2020) can be followed below.

For assay [1], the target named is T1, hILT4-His-Avi tag (human, UniProt Q8N423 22-459).
T1 construct: also called monomeric human ILT4; extracellular region of hILT4 linked to a His-Avi tag
In words: SPR Biacore T200, 37 C; antibody captured on protein A/G chip, monomeric hILT4 as analyte; kinetic fit. How it is done:
(§1) The binding kinetics of the parent and germline reversion mutant anti-hILT4 antibodies (in the context of IgG1.3) were measured via Surface Plasmon Resonance (SPR) using a Biacore® T200 instrument. The assay temperature was 37° C. and the running buffer was PBS pH 7.4 supplemented with 0.05% Tween-20. Allanti-hILT4 antibodies were captured on a CM4 chip with pre-immobilized protein A/G (Pierce Thermo Scientific catalog number 21186). […] Monomeric human ILT4 was injected as analyte. […] The hILT4 used in this experiment, comprising the extracellular region of hILT4 linked to a His-Avi tag, consists of the following amino acid sequence: […]

The target of assay [2] is T2, human LILRA3 (human, UniProt Q8N6C8 24-439).
T2 construct: whole, on cells; also called hLILRA3; LIRA3
Put plainly: antibody titration flow cytometry binding assay on transfected cells, nonlinear regression.

For assay [3], the target named is T3, human ILT4 (hILT4) expressed on cells (human, UniProt Q8N423 22-597).
T3 construct: hILT4 on transfected CHO or 293T cells, or native on human monocytes and macrophages; also called LILRB2
The assay is described as above.

The next assay deals with T4, human LILRA6 (human, UniProt Q6PI73 24-481).
T4 construct: whole, on cells; also called hLILRA6
Put plainly: flow cytometry, 293T transfectants, antibody 20 µg/ml; stacked histograms, control: parental cells. How it is done: (§2) Individual ILT family members were overexpressed in 293T cells. Each transfectant was stained with 20 μg/ml of anti-ILT4 antibodies followed by 1 μg/ml of anti-human IgG secondary mAb. Binding of the antibodies to each transfectant was measured by flow cytometry.

Another assay has as its target T5, human LIR8 (human, UniProt O75023 24-590).
T5 construct: whole, on cells; also called hLIR8
Described as above. How it is done: as §2

The target of the next assay is T6, human LILRA2 (human, UniProt Q8N149 24-483).
T6 construct: whole, on cells; also called hLILRA2
The description is as above. How it is done: as §2

For the next assay, the target named is T7, human LILRA4 (human, UniProt P59901 24-499).
T7 construct: whole, on cells; also called hLILRA4
Described as above. How it is done:
as §2

Another assay concerns the target T8, human ILT2 (human, UniProt Q8NHL6 24-650).
T8 construct: whole, on cells; also called hILT2
The description is as above. How it is done: as §2

In another assay the target is T9, human ILT3 (human, UniProt Q8NHJ6 22-448).
T9 construct: whole, on cells; also called hILT3
The description is as above. How it is done: as §2

Another assay deals with T10, human ILT5 (human, UniProt O75022 24-631).
T10 construct: whole, on cells; also called hILT5; LILRB3
The assay is described as above. How it is done:
as §2

The next assay deals with T11, human LILRA5 (human, UniProt A6NI73 42-299).
T11 construct: whole, on cells; also called hLILRA5
The description is as above. How it is done:
as §2

Assay [4] concerns the target T3, human ILT4 (hILT4) expressed on cells. In words: flow cytometry on human monocytes of a healthy donor, directly labelled antibody, GMFI; EC50 from the table below the graph; the table has no unit, the concentration axis is in ug/mL. The text has this:
In FIG. 18B, monocytes selected from a normal healthy donor's peripheral blood were stained with individual anti-ILT4 antibodies conjugated to […].

Assay [5] shares this target. In words: flow cytometry on hILT4-transfected CHO cells, PE anti-human IgG secondary, GMFI (PE); EC50 from the table below the graph; the table has no unit, the concentration axis is in ug/mL.
In assay [6] the target is T1, hILT4-His-Avi tag. In words: SPR Biacore T200, 37 C; antibody captured by anti-human Fc on CM4 chip, hILT4-His-Avi as analyte; 1:1 Langmuir fit. How it is done: The running buffer was 10 mM HEPES pH 7.4 supplemented with 0.05% Tween-20 and 1 g/L BSA. All anti-ILT4 antibodies were captured on a CM4 chip with pre-immobilized anti-human Fc capture antibody from Southern Biotech (catalog number 2081-01). […] All data were double-referenced and fitted to a 1:1 Langmuir model with mass transport using Biacore T200 Evaluation Software version 3.1.

For assay [7], the target named is T1, hILT4-His-Avi tag. Put plainly: SPR Biacore T200, 37 C; antibody captured on protein A/G chip, monomeric hILT4 as analyte. How it is done: as §1
The target of assay [8] is T1, hILT4-His-Avi tag. Put plainly: SPR Biacore T200, 37 C; antibody captured on protein A/G chip, monomeric hILT4 as analyte; steady state fit. How it is done:
as §1

The target in assay [9] is T12, rhILT4-Fc (human, UniProt Q8N423-1 22-461).
T12 construct: also called rhILT4-Fc fusion protein with a murine Fc tail; not shown: murine Fc tail
Put plainly: flow cytometry blocking assay: antibody titrated (12 points) with rhILT4-Fc fixed at 30 µg/ml; rhILT4-Fc bound to HLA-A overexpressing CHO cells read as % Positive; blocked ligand: HLA-A; the IC50 table has no unit, the concentration axis is in ug/mL.

Assay [10] concerns the target T12, rhILT4-Fc. In words: flow cytometry blocking assay: antibody titrated (12 points) with rhILT4-Fc fixed at 30 µg/ml; rhILT4-Fc bound to HLA-B overexpressing CHO cells read as % Positive; blocked ligand: HLA-B; the IC50 table has no unit, the concentration axis is in ug/mL.
In another assay the target is T13, human LILRA1 (human, UniProt O75019 17-489).
T13 construct: whole, on cells; also called hLILRA1; LIRA1
Put plainly: flow cytometry, 293T transfectants, antibody 20 µg/ml; stacked histograms, control: parental cells. How it is done:
as §2

Assay [11] has as its target T2, human LILRA3. The assay is described as above. How it is done: as §2

T1 sequence (Q8N423 other isoform, or with tags, fused parts or gaps): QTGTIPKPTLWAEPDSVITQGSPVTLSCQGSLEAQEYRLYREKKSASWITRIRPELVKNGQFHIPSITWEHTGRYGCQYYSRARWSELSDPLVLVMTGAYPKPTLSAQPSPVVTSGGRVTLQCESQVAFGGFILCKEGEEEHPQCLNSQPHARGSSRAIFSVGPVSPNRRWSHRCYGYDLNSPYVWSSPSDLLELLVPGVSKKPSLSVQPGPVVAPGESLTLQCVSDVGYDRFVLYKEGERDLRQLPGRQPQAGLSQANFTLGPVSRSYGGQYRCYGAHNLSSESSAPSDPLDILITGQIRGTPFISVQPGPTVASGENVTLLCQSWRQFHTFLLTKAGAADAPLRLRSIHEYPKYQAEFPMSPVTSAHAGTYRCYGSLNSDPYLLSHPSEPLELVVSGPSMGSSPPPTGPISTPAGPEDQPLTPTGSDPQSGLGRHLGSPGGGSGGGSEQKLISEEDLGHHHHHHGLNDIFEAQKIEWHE
T3 sequence (Q8N423 other isoform, or with tags, fused parts or gaps): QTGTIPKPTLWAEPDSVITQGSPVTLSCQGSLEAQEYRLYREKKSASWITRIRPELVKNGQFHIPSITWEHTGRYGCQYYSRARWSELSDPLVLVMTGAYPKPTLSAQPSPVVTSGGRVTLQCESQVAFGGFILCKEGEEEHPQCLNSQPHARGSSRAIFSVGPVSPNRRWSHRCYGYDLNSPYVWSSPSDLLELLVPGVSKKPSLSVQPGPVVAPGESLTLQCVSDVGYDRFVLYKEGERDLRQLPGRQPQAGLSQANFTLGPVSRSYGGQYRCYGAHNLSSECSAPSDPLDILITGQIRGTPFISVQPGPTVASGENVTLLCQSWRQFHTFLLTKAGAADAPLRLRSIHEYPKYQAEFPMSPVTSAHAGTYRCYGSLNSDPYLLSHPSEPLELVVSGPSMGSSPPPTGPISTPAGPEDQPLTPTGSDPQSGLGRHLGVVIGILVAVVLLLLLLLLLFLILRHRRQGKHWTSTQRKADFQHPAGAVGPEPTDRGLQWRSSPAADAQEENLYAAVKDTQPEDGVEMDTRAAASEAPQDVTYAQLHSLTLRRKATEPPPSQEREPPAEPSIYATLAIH
T5 sequence (O75023 24-590): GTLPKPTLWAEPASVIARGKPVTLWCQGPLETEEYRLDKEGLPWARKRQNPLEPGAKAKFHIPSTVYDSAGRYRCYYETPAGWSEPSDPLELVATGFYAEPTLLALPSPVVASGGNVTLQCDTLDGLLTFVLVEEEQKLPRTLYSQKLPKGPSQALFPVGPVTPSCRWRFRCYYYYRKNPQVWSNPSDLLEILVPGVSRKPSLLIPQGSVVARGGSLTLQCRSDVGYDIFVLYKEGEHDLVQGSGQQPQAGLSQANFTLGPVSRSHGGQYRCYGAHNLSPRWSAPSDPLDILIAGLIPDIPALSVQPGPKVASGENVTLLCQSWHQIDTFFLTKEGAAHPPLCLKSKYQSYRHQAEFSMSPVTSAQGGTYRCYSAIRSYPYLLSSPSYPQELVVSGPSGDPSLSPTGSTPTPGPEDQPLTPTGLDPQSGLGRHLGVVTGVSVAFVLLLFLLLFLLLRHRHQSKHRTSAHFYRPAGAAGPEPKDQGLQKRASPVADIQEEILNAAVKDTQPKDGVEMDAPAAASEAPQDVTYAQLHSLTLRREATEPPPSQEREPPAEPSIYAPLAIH
T7 sequence (P59901 24-499): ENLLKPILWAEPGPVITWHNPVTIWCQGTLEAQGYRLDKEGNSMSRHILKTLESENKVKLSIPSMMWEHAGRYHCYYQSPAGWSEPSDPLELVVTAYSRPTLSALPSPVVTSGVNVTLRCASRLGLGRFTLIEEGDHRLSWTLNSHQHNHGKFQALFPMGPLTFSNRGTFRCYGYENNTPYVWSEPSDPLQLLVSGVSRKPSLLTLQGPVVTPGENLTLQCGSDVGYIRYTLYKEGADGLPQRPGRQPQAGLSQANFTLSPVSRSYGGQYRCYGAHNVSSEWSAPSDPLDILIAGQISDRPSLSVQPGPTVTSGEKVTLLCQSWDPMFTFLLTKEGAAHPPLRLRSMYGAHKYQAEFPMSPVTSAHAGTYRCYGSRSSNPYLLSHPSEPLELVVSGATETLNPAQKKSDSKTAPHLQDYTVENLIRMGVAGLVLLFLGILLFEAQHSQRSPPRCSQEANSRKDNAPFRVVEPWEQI
T4 sequence (Q6PI73 24-481): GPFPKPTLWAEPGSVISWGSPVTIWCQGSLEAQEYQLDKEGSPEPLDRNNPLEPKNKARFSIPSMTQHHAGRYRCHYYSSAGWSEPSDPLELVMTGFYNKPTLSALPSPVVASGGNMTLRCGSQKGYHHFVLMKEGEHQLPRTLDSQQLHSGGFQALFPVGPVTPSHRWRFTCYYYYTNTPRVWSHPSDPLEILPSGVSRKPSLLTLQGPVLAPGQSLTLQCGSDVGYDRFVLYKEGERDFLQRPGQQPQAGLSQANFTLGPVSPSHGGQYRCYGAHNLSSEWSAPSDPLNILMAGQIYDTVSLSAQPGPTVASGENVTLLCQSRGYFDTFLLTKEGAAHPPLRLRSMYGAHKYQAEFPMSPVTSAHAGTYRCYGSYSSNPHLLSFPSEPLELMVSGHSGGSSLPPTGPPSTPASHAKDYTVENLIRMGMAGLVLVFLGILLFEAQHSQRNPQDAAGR
T6 sequence (Q8N149 24-483): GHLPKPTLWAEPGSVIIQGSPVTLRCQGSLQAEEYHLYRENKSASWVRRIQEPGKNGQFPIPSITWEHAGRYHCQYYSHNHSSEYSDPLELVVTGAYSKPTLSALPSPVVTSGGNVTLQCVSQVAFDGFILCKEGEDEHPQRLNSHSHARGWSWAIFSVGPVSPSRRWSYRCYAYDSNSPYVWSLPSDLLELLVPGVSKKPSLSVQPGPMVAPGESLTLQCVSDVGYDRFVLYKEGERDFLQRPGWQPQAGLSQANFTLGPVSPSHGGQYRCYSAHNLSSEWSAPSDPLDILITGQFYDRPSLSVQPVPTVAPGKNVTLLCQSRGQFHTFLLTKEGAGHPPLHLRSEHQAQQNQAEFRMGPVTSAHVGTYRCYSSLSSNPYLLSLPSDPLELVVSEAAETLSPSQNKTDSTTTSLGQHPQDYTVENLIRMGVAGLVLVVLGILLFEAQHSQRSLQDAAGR
T12 sequence (Q8N423 other isoform, or with tags, fused parts or gaps): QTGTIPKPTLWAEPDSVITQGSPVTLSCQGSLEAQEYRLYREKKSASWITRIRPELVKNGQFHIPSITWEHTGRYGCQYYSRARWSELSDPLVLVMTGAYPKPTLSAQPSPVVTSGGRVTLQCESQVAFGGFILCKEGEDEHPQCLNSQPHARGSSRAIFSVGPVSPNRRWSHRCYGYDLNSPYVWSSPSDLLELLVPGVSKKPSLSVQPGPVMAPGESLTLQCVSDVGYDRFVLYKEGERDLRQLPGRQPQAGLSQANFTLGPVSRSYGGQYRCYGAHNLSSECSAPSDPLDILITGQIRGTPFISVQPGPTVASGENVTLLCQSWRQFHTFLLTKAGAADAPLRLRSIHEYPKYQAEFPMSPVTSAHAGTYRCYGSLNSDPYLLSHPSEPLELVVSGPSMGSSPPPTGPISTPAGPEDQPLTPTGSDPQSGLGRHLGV
T8 sequence (Q8NHL6 24-650): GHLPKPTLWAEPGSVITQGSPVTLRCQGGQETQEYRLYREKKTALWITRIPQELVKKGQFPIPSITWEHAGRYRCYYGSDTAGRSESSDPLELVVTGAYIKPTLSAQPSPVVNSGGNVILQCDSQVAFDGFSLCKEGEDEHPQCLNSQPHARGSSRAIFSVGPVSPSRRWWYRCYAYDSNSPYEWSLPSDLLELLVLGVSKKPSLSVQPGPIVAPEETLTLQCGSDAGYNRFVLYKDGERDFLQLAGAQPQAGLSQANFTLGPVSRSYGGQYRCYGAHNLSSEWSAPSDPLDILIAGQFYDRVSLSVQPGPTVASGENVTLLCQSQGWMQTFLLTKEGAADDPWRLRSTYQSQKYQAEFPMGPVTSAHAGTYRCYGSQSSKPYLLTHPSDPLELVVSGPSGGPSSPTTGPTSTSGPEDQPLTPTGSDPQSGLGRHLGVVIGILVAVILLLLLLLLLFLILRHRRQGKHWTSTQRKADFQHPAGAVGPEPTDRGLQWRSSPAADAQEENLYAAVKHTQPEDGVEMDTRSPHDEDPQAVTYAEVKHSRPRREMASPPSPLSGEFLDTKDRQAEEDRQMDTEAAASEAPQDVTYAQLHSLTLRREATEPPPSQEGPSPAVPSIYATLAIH
T2 sequence (Q8N6C8 24-439): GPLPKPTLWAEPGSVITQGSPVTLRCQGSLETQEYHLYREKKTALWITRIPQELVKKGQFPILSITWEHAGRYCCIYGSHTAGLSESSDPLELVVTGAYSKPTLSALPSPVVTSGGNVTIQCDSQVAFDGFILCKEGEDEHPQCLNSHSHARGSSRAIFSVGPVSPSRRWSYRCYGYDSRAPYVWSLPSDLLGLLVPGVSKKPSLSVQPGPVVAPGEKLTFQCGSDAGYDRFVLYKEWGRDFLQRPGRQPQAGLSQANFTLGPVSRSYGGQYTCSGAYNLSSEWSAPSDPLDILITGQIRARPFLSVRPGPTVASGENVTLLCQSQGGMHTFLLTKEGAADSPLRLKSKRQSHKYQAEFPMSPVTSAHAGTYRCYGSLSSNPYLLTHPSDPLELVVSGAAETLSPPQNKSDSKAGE
T11 sequence (A6NI73 42-299): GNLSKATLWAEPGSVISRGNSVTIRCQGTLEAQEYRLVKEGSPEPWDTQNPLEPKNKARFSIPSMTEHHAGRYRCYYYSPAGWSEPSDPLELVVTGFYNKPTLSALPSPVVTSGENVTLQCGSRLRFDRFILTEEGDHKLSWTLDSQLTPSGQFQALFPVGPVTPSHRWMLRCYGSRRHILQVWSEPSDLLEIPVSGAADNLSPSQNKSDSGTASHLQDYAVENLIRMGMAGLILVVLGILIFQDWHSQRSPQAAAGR

B1: 21A5.a.IgG1.3 (antibody, V domains shown)
VH: QVQLVQSGAEVKKPGASVKVSCKASGYTFTDYYLHWVRQAPGQGLEWMGIFHPSGDITSSAQNFQGRVTMTRDTSTSTVYMELSSLRSEDTAVYYCARGGVLRYLDWSHAFDIWGQGTMVTVSS
VL: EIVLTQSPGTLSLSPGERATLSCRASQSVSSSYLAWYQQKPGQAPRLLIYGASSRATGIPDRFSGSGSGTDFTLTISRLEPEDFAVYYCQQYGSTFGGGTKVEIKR
notes: Germline reversion mutant of 21A5 (VH I70T, VK A3V; 21A5.1 light chain); IgG1.3; also called ILT4.9.IgG1.3; ILT4.9
Consider B1, for which the Kd in the assay with hILT4-His-Avi tag [1] was 0.17 nM; with hILT4-His-Avi tag [6] it was 0.036 nM. In addition, the app. act. stood at 98% in the assay with hILT4-His-Avi tag [1] and 100% with hILT4-His-Avi tag [6]. Moreover, the koff with hILT4-His-Avi tag [1] amounted to 0.00019 s⁻¹; in the assay with hILT4-His-Avi tag [6], 1.7e-05 s⁻¹. In addition, the results for the kon in the assay with hILT4-His-Avi tag [1] and with hILT4-His-Avi tag [6] were 1.1e+06 M⁻¹ s⁻¹ and 490000 M⁻¹ s⁻¹, respectively. Moreover, the EC50 turned out to be 52.9 µg/mL with human LILRA3 [2], 0.085 µg/mL in [3], 0.395 µg/mL in [4] and 0.0627 µg/mL in assay [5]. In addition, the binding result with human LILRA6, in the assay with human LIR8, with human LILRA2, in the assay with human LILRA4, with human ILT2 and with human ILT3 was “no binding (tested: 20 µg/ml)” throughout. For the same molecule, the binding result with human ILT5 and with human LILRA5 was “no binding (tested: 20 µg/ml)” each time.

B2: 10F10.1.IgG1.3 (antibody, V domains shown)
VH: QVQLVESGGGVVQPGRSLRLSCAASGFTFSSYAMHWVRQAPGKGLEWVAIISYDEYNKYYADSVKGRFTISRDNSKNTLYLQMNSLRAEDTAVYYCAREWVGIRYWGQGTLVTVSS
VL: AIQLTQSPSSLSASVGDRVTITCRASQGISSALAWYQQKPGKAPKLLIYDASSLESGVPSRFTGSGSGTDFTLTISSLQPEDFATYYCQQFNSYPITFGQGTRLEIKR
notes: Germline reversion mutant of 10F10 (light chain F36Y); heavy chain of 10F10; IgG1.3; also called 10F10.VK-F36Y.IgG1.3
In the assay with hILT4-His-Avi tag [1], B2 showed a Kd of 46 nM, an app. act. of 94%, a koff of approximately 0.07 s⁻¹ and a kon of 1.5e+06 M⁻¹ s⁻¹. In addition, in the assay with hILT4-His-Avi tag [7], the “fold loss in overall affinity relative to parent 10F10” value is approximately 3 fold. In the assay with hILT4-His-Avi tag [8], the Kd worked out at 56 nM and the app. act. came to 88%.

B3: 10F10.3.IgG1.3 (antibody, V domains shown)
VH: QVQLVESGGGVVQPGRSLRLSCAASGFTFSSYAMHWVRQAPGKGLEWVAIISYDEYNKYYADSVKGRFTISRDNSKNTLYLQMNSLRAEDTAVYYCAREWVGIRYWGQGTLVTVSS
VL: AIQLTQSPSSLSASVGDRVTITCRASQGISSALAWYQQKPGKAPKLLIYDASSLESGVPSRFSGSGSGTDFTLTISSLQPEDFATYYCQQFNSYPITFGQGTRLEIKR
notes: Germline reversion mutant of 10F10 (light chain F36Y and T63S); heavy chain of 10F10; IgG1.3; also called ILT4.11.IgG1.3; 10F10.VK-F36Y/T63S.IgG1.3
With B3, in the assay with hILT4-His-Avi tag [1], the Kd is 47 nM, the app. act. stood at 123%, the koff is approximately 0.08 s⁻¹ and the kon was found to be 1.7e+06 M⁻¹ s⁻¹. For the same molecule, the “fold loss in overall affinity relative to parent 10F10” value with hILT4-His-Avi tag [7] is approximately 3 fold. In the assay with hILT4-His-Avi tag [8], this molecule returned a Kd of 52 nM and an app. act. of 115%.

B4: 21D9.IgG1.1f (antibody)
heavy: EGQLLESGGDLVQPGGSLRLSCATSGFTFSNYAMNWVRQAPGKGLEWISVISVSGGSTYYADSVKGRFTISRDNSKNTLYLQMNSLRAEDTAVYYCAKDYYYDSGSYYDSFFDYWGQGTLVTVSSASTKGPSVFPLAPSSKSTSGGTAALGCLVKDYFPEPVTVSWNSGALTSGVHTFPAVLQSSGLYSLSSVVTVPSSSLGTQTYICNVNHKPSNTKVDKRVEPKSCDKTHTCPPCPAPEAEGAPSVFLFPPKPKDTLMISRTPEVTCVVVDVSHEDPEVKFNWYVDGVEVHNAKTKPREEQYNSTYRVVSVLTVLHQDWLNGKEYKCKVSNKALPSSIEKTISKAKGQPREPQVYTLPPSREEMTKNQVSLTCLVKGFYPSDIAVEWESNGQPENNYKTTPPVLDSDGSFFLYSKLTVDKSRWQQGNVFSCSVMHEALHNHYTQKSLSLSPGK
light: not shown
notes: Parent 21D9 in IgG1.1f (L234A, L235E, G237A, A330S, P331S); also called ILT4.6.IgG1.1
With B4, the IC50 came to 2.88 µg/mL with rhILT4-Fc [9] and 0.918 µg/mL with rhILT4-Fc [10]. For the same molecule, the EC50 in assay [3] came out at 0.046 µg/mL. For the same molecule, the binding result with human LILRA6, with human LIR8, with human LILRA2, in the assay with human LILRA4, with human LILRA1 and in the assay with human ILT2 was “no binding (tested: 20 µg/ml)” in each case. Moreover, the binding result with human ILT3, in the assay with human ILT5 and with human LILRA3 [11] was “no binding (tested: 20 µg/ml)” in each case.
